Share of PTEN-long in the PTEN pulled down data for one substance are collected here from patent US20130171235A1.

For this assay, the target named is PTEN-long (endogenous human form, translated from the upstream CUG start site of PTEN mRNA) (Homo sapiens). In words: concanavalin A sepharose pulldown from HEK293 lysate, immunoblot.

Take “concanavalin A (lectin, on sepharose) (from UniProt P02866)”: the share of PTEN-long in the PTEN pulled down worked out at 50%.
